Measurements as given in patent US20060252140A1.

Biological target: hyperactive SB transposase mutant HSB5
Assay: cell-based or functional assay

E2C/SB-5 fusion protein
integration frequency against cells containing the E2C/SB-5 fusion protein without the limiting amount of HSB5 (142 colonies): 4 fold | integration frequency against cells expressing the same limiting amount of HSB5 transposase alone (58 colonies): 10 fold
